Measurements taken from US20170101466A1 (published 2017).
Blank lines part the entries; values can stand above or below the binder they belong to.

B3: mouse APRIL (ligand, UniProt Q9D777 96-241, looked up)
chain: AVLTQKHKKKHSVLHLVPVNITSKADSDVTEVMWQPVLRRGRGLEAQGDIVRVWDTGIYLLYSQVLFHDVTFTMGQVVSREGQGRRETLFRCIRSMPSDPDRAYNSCYSAGVFHLHQGDIITVKIPRANAKLSLSPHGTFLGFVKL
notes: Bought recombinant protein; also called mAPRIL

How the values were obtained:
soluble cynomolgus BLyS = target: T1, soluble cynomolgus BLyS (cynomolgus, UniProt A0A2K5V2X4 134-285); assay: ELISA, soluble cyBLyS
T1 construct: Soluble form; also called cyBLyS; Soluble cyBLyS

soluble human BLyS [1] = target: T2, soluble human BLyS (human, UniProt Q9Y275 134-285); assay: ELISA, soluble hBLyS; soluble hBLyS ELISA
T2 construct: also called hBLyS; human BAFF (BLyS)

soluble mouse BLyS [2] = target: T3, soluble mouse BLyS (mouse, UniProt Q9WU72 127-309); assay: Biacore
T3 construct: europium-labelled in DELFIA; also called mBLyS; mouse BAFF (BLyS)

soluble mouse BLyS [3] = target: T3, soluble mouse BLyS; assay: ELISA, soluble mBLyS
soluble human BLyS [4] = target: T2, soluble human BLyS; assay: ELISA, soluble hBLyS; soluble hBLyS ELISA (weak, IC50 28 nM)
soluble human BLyS [5] = target: T2, soluble human BLyS; assay: blocking of biotinylated soluble hBLyS binding to immobilized mBR3; hBLyS/mBR3 receptor blocking assay; no blocking up to 100 nM
[6] = target: T4, human TACI (R&D Systems receptor chimera) (human, UniProt O14836 2-166); assay: Biacore, binder captured, APRIL injected at 50 nM
T4 construct: also called hTACI; TACI rec Human
T4 sequence (looked up): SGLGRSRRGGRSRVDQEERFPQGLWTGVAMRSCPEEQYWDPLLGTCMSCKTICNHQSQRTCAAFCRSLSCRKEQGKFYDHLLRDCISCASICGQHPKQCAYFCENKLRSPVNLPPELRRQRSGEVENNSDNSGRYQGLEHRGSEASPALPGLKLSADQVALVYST
Protocol: (§1) Recombinant protein NG (Thermo Scientific, Cat #21186) was diluted to 100 μg/ml in 10 mM Sodium Acetate pH 4.0 and then immobilized on the surface of a pre-activated Series S CM4 Biacore chip (GE, Cat #BR-1005-34) using amine coupling. […] Binding response was measured as the difference in total RU increase during 300 second APRIL injection of each individual flow cell and the reference flow cell (e.g., Flow cell 2-1).

soluble human BLyS [7] = target: T2, soluble human BLyS; assay: cell-based or functional assay
soluble human BLyS [8] = target: T2, soluble human BLyS; assay: DELFIA competition, Eu-hBLyS binding to coated BR3
Protocol: (§2) After 5× washing with 200 ul/well of DELFIA 1× wash solution (PE, Cat #4010-0010), plates were blocked with 3% BSA purified from trace heavy metal amounts (PE, Cat #CR84-100) for 3 hours with shaking at room temperature. Plates were washed again five times at 200 μl/well with DELFIA wash solution.
(§3) The final 3 wells across the plate served as controls (2 wells contained 2,000 pM mAbs for negative and background controls while the third contained no mAbs for positive control). […] After 18-24 hrs at 4° C., plates were read on PE EnVision plate reader with laser excitation, LANCE/DELFIA top mirror, and emission filter Eu-615 with a delay of 400 μs. Data were fit to four parameter (variable slope) inhibition dose response curve using GraphPad PRISM 5.0 software.

soluble mouse BLyS [9] = target: T3, soluble mouse BLyS; assay: DELFIA competition, Eu-mBLyS binding to coated BR3
Protocol: as §2, §3

soluble human BLyS [10] = target: T2, soluble human BLyS; assay: Biacore
soluble human BLyS [11] = target: T2, soluble human BLyS; assay: ELISA, soluble hBLyS
soluble mouse BLyS [12] = target: T3, soluble mouse BLyS; assay: cell-based or functional assay
human APRIL [13] = target: T5, human APRIL (human, UniProt O75888 105-250, limits assumed); assay: Biacore, antibody captured, APRIL injected
T5 construct: Bought recombinant protein; also called hAPRIL
T5 sequence (looked up): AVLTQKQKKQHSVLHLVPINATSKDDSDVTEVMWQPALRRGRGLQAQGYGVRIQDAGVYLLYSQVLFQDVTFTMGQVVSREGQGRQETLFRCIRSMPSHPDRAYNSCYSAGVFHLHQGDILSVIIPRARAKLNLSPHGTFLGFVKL
Protocol: as §1

mouse APRIL [14] = target: B3; assay: Biacore, antibody captured, APRIL injected
Protocol: as §1

soluble human BLyS [15] = target: T2, soluble human BLyS; assay: DELFIA competition, Eu-hBLyS binding to coated BCMA
Protocol: as §2, §3

soluble human BLyS [16] = target: T2, soluble human BLyS; assay: DELFIA competition, Eu-hBLyS binding to coated TACI
Protocol: as §2, §3

soluble mouse BLyS [17] = target: T3, soluble mouse BLyS; assay: DELFIA competition, Eu-mBLyS binding to coated BCMA
Protocol: as §2, §3

soluble mouse BLyS [18] = target: T3, soluble mouse BLyS; assay: DELFIA competition, Eu-mBLyS binding to coated TACI
Protocol: as §2, §3

soluble human BLyS [19] = target: T2, soluble human BLyS; assay: blocking of biotinylated soluble hBLyS binding to immobilized mBR3
soluble human BLyS [20] = target: T2, soluble human BLyS; assay: Biacore, antibody captured on chip, BLyS injected, 1:1 model, 25 C
Protocol: (§4) Recombinant protein NG (Thermo Scientific, Cat #21186) was diluted to 100 μg/ml in 10 mM sodium acetate pH 4.0 and then immobilized on the surface of a pre-activated Series S CM5 Biacore chip (GE, Cat #BR-1005-34) using amine coupling. […] After the dissociation period, the chip was regenerated back to baseline by injecting 10 mM glycine pH 1.5 for 120 seconds over the four flow cells. […] The entire data set was fit to a 1:1 interaction model to give kₒₙ, koff, and Kd values. The assay was run at 25° C. in 1× biacore running buffer HBS-EP+ (GE, Cat #BR-1006-69).

soluble mouse BLyS [21] = target: T3, soluble mouse BLyS; assay: as above
Protocol: as §4

soluble human BLyS [22] = target: T2, soluble human BLyS; assay: Biacore T100, binder captured by anti-human Fc, BLyS injected, 1:1 model
Protocol: (§5) A Series S CM5 Chip (GE Healthcare) was amine coupled with an anti-human Fc capturing antibody (GE Healthcare Human Fc Kit) to >10,000 RUs. Sample antibodies were diluted in 1×HBS-EP+ running buffer to 0.15 ug/mL and injected for 45 seconds at 10 uL/min. […] Biacore Evaluation software was used to fit the data to a 1:1 Binding Model.

soluble mouse BLyS [23] = target: T3, soluble mouse BLyS; assay: as above
Protocol: as §5

human APRIL [24] = target: T5, human APRIL; assay: Biacore, binder captured, APRIL injected at 50 nM
Protocol: as §1

mouse APRIL [25] = target: B3; assay: Biacore, binder captured, APRIL injected at 50 nM
Protocol: as §1

Binder: B3
binding result [6]: binds

B5: 5B7 IgG expressed in HEK293 cells (antibody, V domains shown)
VH: QVQLVQSGAEVKKPGASVKVSCKASGGTFSSYAISWVRQAPGQGLEWMGGIIPIFGTANYAQKFQGRVTITADKSTSTAYMELSSLRSEDTAVYYCARVDYDILTGYYMGYFDYWGQGTLVTVSS
VL: DIVMTQSPATLSLSPGERATLSCRASQSVSSYLAWYQQKPGQAPRLLIYDASNRATGIPARFSGSGSGTDFTLTISSLEPEDFAVYYCQQRSNWPITFGQGTRLEIKR
notes: also called 5B7 (293); 5B7-HEK293
Kd (soluble human BLyS [10]): 400 pM
Kd (soluble mouse BLyS [2]): 14.5 pM
IC50 (soluble human BLyS [11]): 100 pM
IC50 (soluble mouse BLyS [3]): 160 pM
IC50 (soluble cynomolgus BLyS): 80 pM
IC50 hBLyS stimulated, mouse splenic B-cell proliferation (soluble human BLyS [7]): 4 ng/mL
IC50 mBLyS stimulated, mouse splenic B-cell proliferation (soluble mouse BLyS [12]): 3 ng/mL
binding result (human APRIL [13]): no binding (tested: 50 nM)
binding result (mouse APRIL [14]): no binding (tested: 50 nM)
IC50 (soluble human BLyS [8]): 52.6 pM
IC50 (soluble mouse BLyS [9]): 107 pM
IC50 (soluble human BLyS [15]): 1.8 pM
IC50 (soluble human BLyS [16]): < 0.3 pM
IC50 (soluble mouse BLyS [17]): 1.3 pM
IC50 (soluble mouse BLyS [18]): < 0.3 pM
IC50 (soluble human BLyS [19]): 430 pM
Kd (soluble human BLyS [20]): 224 pM
koff (soluble human BLyS [20]): 4.2e-05 s⁻¹
kon (soluble human BLyS [20]): 190000 M⁻¹ s⁻¹
Kd (soluble mouse BLyS [21]): 62 pM
koff (soluble mouse BLyS [21]): 4.2e-05 s⁻¹
kon (soluble mouse BLyS [21]): 670000 M⁻¹ s⁻¹

B6: 5B7 IgG1 F243A/V264A double mutein expressed in Pichia pastoris (antibody, V domains shown)
VH: QVQLVQSGAEVKKPGASVKVSCKASGGTFSSYAISWVRQAPGQGLEWMGGIIPIFGTANYAQKFQGRVTITADKSTSTAYMELSSLRSEDTAVYYCARVDYDILTGYYMGYFDYWGQGTLVTVSS
VL: DIVMTQSPATLSLSPGERATLSCRASQSVSSYLAWYQQKPGQAPRLLIYDASNRATGIPARFSGSGSGTDFTLTISSLEPEDFAVYYCQQRSNWPITFGQGTRLEIKR
notes: IgG1 F243A/V264A (EU) double mutein, alpha-2,6-sialylated, from glycoengineered Pichia pastoris; also called 5B7-DM; 5B7-DM Pichia
IC50 hBLyS stimulated, mouse splenic B-cell proliferation (soluble human BLyS [7]): ≤ 1 ng/mL
IC50 mBLyS stimulated, mouse splenic B-cell proliferation (soluble mouse BLyS [12]): ≤ 1 ng/mL
binding result (human APRIL [13]): no binding (tested: 50 nM)
binding result (mouse APRIL [14]): no binding (tested: 50 nM)
IC50 (soluble human BLyS [8]): 37.7 pM
IC50 (soluble mouse BLyS [9]): 94 pM
IC50 (soluble human BLyS [15]): 1.6 pM
IC50 (soluble human BLyS [16]): 0.51 pM
IC50 (soluble mouse BLyS [17]): < 0.3 pM
IC50 (soluble mouse BLyS [18]): < 0.3 pM
Kd (soluble human BLyS [20]): 179 pM
koff (soluble human BLyS [20]): 3.5e-05 s⁻¹
kon (soluble human BLyS [20]): 190000 M⁻¹ s⁻¹
Kd (soluble mouse BLyS [21]): 65 pM
koff (soluble mouse BLyS [21]): 4e-05 s⁻¹
kon (soluble mouse BLyS [21]): 620000 M⁻¹ s⁻¹
Kd (soluble human BLyS [22]): 68 pM
koff (soluble human BLyS [22]): 4.6e-05 s⁻¹
kon (soluble human BLyS [22]): 678000 M⁻¹ s⁻¹
Kd (soluble mouse BLyS [23]): 37 pM
koff (soluble mouse BLyS [23]): 0.000102 s⁻¹
kon (soluble mouse BLyS [23]): 2.73e+06 M⁻¹ s⁻¹

Further lines, results first:

IC50 (soluble cynomolgus BLyS): 110 pM
IC50 (soluble human BLyS [1]): 2870 pM
B1: 1F4 IgG expressed in HEK293 cells (antibody, V domains shown)
VH: QVTLKESGPTLVKPTQTLTLTCTFSGFSLSTSRVGVGWIRQPPGKALEWLARIDWDDDKYYSTSLKTRLTISKDTSKNQVVLTMTNMDPVDTATYYCARTHTYYDILTGYSYHVYFDYWGQGTLVTVSS
VL: QSALTQPPSASGSRGQSVSISCSGSRSDIGYYNYVSWYQQHPGKAPKLIIFDVNKRPSGVPDRFSGSKSGNTASLTVSGLQPEDEADYYCASYGGRNNLLFGGGTQLTVLG
notes: IgG from HEK293-FreeStyle cells; also called IF4

Kd (soluble mouse BLyS [2]): 48.6 pM
IC50 (soluble mouse BLyS [3]): 470 pM
IC50 (soluble cynomolgus BLyS): 1460 pM
IC50 (soluble human BLyS [4]): 28000 pM
IC50 (soluble human BLyS [5]): > 100000 pM
B2: 4A2 IgG expressed in HEK293 cells (antibody, V domains shown)
VH: QVQLVQSGGGVVQPGRSLRLSCAASGFTFSSYGMHWVRQAPGKGLEWVAVISHDGSNKYYADSVKGRFTISRDNSKNTLYLQMNSLRAEDTAVYYCAKDRSYYDILTGYYIPYYYGMDVWGQGTTVTVSS
VL: QAVLTQPPSASGTPGQKVTISCSGSSSDIGSNNVNWYQQFPGTAPKLLIHSNNLRPSGVPVRFSGSKSGTSASLAISGLQSEDEADYYCSAWDDSVNGVAFGGGTKLTVLG
notes: IgG from HEK293-FreeStyle cells

IC50 hBLyS stimulated, mouse splenic B-cell proliferation (soluble human BLyS [7]): 4 ng/mL
IC50 (soluble human BLyS [8]): 89.9 pM
IC50 (soluble mouse BLyS [9]): > 2000 pM
B4: tabalumab (antibody, V domains shown)
VH: QVQLQQWGAGLLKPSETLSLTCAVYGGSFSGYYWSWIRQPPGKGLEWIGEINHSGSTNYNPSLKSRVTISVDTSKNQFSLKLSSVTAADTAVYYCARGYYDILTGYYYYFDYWGQGTLVTVSS
VL: EIVLTQSPATLSLSPGERATLSCRASQSVSRYLAWYQQKPGQAPRLLIYDASNRATGIPARFSGSGSGTDSTLTISSLEPEDFAVYYCQQRSNWPRTFGQGTKVEIKR

binding result (human APRIL [24]): binds
binding result (mouse APRIL [25]): binds
Kd (soluble human BLyS [22]): 602 pM
koff (soluble human BLyS [22]): 0.000239 s⁻¹
kon (soluble human BLyS [22]): 397000 M⁻¹ s⁻¹
Kd (soluble mouse BLyS [23]): 177 pM
koff (soluble mouse BLyS [23]): 0.000121 s⁻¹
kon (soluble mouse BLyS [23]): 682000 M⁻¹ s⁻¹
B7: mouse TACI (R&D Systems receptor chimera) (receptor, UniProt Q9ET35 2-129, looked up, not shown: a dimerising Fc or GST)
chain: AMAFCPKDQYWDSSRKSCVSCALTCSQRSQRTCTDFCKFINCRKEQGRYYDHLLGACVSCDSTCTQHPQQCAHFCEKRPRSQANLQPELGRPQAGEVEVRSDNSGRHQGSEHGPGLRLSSDQLTLYCT
notes: also called mTACI; TACI rec Mouse
